Results published in the supplement of paper PMC9876800.

Tested on: peptide library, one residue held at a place counted from the S/T acceptor
Experiment: relative phosphorylation of the sub-library (ratio to the mean residue at this position); human; higher = residue favoured
Conditions: V fixed; at +3
Summary of the method: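 In 384-well plates, purified recombinant kinases (human or orthologue constructs) were incubated for 90 min under kinase-specific conditions with 50 μM biotinylated degenerate peptide sub-libraries and 50 μM ATP spiked with γ-32P-ATP. Each sub-library fixed a single residue at one position around a central Ser/Thr. Relative sub-library phosphorylation, measured by phosphorimaging and densitometry of streptavidin membrane spots, is given as a ratio to the mean residue at that position.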

Sequence of SIK3, construct: aa1-307 (Q9Y2K2 1-307, looked up): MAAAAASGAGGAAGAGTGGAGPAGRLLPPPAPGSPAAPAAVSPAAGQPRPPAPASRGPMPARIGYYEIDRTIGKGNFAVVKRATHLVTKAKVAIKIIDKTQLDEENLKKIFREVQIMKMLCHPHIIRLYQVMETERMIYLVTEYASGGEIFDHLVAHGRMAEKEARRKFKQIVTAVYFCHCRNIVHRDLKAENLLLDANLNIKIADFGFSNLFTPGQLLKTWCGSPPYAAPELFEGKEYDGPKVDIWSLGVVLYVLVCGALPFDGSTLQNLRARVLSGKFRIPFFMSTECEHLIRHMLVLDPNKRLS
Sequence of MAP4K5, construct: Full length (Q9Y4K4 whole entry, looked up): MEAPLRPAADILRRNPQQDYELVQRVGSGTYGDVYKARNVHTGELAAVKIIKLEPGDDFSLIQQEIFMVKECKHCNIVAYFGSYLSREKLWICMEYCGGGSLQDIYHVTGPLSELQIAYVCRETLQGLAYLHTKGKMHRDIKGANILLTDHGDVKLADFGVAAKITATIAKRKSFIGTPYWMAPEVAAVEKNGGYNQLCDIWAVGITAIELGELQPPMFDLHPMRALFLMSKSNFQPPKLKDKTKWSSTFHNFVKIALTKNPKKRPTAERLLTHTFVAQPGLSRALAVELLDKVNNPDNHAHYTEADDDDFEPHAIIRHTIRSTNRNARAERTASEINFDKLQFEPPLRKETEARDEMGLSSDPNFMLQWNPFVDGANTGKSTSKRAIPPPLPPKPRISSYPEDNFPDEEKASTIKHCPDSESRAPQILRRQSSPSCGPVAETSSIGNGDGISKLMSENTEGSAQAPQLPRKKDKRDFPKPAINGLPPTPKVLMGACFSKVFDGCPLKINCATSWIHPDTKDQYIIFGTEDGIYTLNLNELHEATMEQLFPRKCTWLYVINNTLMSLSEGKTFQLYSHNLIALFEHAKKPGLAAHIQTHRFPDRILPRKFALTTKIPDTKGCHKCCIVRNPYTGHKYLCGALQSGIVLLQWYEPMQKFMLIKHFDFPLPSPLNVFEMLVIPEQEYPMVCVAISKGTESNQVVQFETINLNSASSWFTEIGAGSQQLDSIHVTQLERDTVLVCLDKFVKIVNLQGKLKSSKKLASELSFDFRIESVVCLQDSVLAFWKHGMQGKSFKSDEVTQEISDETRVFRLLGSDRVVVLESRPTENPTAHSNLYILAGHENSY
Sequence of NEK6, construct: Full length (Q9HC98 whole entry, looked up): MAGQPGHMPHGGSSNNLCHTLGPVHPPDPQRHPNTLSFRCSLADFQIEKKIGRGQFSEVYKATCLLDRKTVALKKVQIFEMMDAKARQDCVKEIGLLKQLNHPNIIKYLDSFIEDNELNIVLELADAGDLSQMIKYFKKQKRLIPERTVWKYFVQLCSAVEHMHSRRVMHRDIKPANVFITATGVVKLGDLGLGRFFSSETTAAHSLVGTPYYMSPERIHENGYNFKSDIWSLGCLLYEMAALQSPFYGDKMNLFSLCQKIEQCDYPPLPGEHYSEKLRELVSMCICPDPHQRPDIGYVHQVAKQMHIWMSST
Sequence of SLK, construct: Full length (Q9H2G2 whole entry, looked up): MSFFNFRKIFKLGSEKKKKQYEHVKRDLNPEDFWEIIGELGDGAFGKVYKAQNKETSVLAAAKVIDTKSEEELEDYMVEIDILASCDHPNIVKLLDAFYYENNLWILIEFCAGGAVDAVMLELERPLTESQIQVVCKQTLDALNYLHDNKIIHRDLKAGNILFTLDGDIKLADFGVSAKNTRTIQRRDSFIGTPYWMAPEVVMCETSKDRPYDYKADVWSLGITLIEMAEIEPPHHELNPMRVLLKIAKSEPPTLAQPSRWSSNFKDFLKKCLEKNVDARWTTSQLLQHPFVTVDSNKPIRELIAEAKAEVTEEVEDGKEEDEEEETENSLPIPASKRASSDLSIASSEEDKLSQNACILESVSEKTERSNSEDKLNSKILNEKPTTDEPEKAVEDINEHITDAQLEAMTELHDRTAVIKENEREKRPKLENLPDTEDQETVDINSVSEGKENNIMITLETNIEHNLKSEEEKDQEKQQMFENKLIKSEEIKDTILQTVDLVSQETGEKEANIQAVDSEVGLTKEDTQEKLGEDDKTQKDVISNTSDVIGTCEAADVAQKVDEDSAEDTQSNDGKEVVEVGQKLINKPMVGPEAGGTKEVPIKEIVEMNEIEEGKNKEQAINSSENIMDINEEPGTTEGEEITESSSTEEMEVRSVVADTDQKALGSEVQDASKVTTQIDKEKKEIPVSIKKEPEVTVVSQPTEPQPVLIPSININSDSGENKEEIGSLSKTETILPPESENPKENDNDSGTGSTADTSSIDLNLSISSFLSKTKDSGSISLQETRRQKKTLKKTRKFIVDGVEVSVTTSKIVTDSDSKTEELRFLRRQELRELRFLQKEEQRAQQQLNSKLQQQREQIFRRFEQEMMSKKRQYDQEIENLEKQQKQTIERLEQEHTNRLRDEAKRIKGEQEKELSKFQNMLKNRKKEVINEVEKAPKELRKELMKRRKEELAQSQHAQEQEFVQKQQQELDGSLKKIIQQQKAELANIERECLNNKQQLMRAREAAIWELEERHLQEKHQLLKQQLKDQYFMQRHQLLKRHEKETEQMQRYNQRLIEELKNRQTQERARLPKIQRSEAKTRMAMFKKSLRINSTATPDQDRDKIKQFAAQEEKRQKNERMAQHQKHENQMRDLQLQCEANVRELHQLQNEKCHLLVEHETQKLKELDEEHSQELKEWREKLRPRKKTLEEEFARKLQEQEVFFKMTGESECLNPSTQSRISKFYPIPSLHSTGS
Sequence of TNIK, construct: aa1-314 (Q9UKE5 1-314, looked up): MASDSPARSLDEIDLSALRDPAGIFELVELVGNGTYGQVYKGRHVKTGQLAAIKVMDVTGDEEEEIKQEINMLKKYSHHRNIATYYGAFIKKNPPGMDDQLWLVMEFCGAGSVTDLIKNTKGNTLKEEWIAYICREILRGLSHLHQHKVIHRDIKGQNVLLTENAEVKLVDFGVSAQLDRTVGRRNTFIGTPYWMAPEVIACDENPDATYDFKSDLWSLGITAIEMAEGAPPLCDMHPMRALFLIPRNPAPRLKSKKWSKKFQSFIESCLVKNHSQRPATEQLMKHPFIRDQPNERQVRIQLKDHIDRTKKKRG
Sequence of CDK10, construct: Full length (Q15131 whole entry, looked up): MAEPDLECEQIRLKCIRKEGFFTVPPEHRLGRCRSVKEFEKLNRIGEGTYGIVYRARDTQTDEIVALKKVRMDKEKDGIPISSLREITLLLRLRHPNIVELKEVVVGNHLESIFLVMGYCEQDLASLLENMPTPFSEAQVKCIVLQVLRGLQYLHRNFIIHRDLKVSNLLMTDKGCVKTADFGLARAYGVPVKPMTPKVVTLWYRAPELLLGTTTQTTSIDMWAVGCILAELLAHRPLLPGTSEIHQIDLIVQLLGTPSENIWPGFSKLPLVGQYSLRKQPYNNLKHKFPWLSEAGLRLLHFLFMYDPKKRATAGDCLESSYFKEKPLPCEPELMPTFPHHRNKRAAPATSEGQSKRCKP
Sequence of IKBKE, construct: Full length (Q14164 whole entry, looked up): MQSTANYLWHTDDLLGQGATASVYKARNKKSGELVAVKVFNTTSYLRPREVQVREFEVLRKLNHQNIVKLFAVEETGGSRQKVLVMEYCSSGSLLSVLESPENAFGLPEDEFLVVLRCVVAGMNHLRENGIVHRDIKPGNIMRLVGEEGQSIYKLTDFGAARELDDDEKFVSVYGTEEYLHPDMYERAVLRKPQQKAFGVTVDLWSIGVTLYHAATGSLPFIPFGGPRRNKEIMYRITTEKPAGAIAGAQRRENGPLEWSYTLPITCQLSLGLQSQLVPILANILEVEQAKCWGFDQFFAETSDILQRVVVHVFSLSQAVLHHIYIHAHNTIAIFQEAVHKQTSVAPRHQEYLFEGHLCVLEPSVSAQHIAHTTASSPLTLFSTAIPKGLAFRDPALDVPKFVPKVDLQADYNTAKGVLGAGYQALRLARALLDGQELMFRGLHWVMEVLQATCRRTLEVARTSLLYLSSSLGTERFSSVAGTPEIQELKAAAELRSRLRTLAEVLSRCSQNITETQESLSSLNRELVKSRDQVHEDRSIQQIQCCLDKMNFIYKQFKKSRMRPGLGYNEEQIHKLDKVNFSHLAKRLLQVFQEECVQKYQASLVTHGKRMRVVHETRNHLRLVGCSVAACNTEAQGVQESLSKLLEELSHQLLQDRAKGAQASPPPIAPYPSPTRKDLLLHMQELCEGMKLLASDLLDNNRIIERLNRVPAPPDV

Substance	relative phosphorylation
MAP4K5, construct: Full length (from UniProt Q9Y4K4)	0.609
NEK6, construct: Full length (from UniProt Q9HC98)	0.568
SIK3, construct: aa1-307 (from UniProt Q9Y2K2)	0.488
TNIK, construct: aa1-314 (from UniProt Q9UKE5)	0.503
SLK, construct: Full length (from UniProt Q9H2G2)	0.514
CDK10, construct: Full length (from UniProt Q15131)	0.716

Same assay, conditions: V fixed; at +4

Substance	relative phosphorylation
PKN2, construct: aa501-984 (from UniProt Q16513)	0.787
IKBKE, construct: Full length (from UniProt Q14164)	0.926
MAP4K5, construct: Full length (from UniProt Q9Y4K4)	0.718
NEK6, construct: Full length (from UniProt Q9HC98)	0.707
SIK3, construct: aa1-307 (from UniProt Q9Y2K2)	1.18
TNIK, construct: aa1-314 (from UniProt Q9UKE5)	0.65
SLK, construct: Full length (from UniProt Q9H2G2)	0.598
CDK10, construct: Full length (from UniProt Q15131)	0.691

Same assay, conditions: V fixed; at -1

Substance	relative phosphorylation
PKN2, construct: aa501-984 (from UniProt Q16513)	0.74
IKBKE, construct: Full length (from UniProt Q14164)	0.986
MAP4K5, construct: Full length (from UniProt Q9Y4K4)	0.362
NEK6, construct: Full length (from UniProt Q9HC98)	0.578
SIK3, construct: aa1-307 (from UniProt Q9Y2K2)	0.463
TNIK, construct: aa1-314 (from UniProt Q9UKE5)	0.438
SLK, construct: Full length (from UniProt Q9H2G2)	0.35
CDK10, construct: Full length (from UniProt Q15131)	0.408

Same assay, conditions: V fixed; at -2

Substance	relative phosphorylation
PKN2, construct: aa501-984 (from UniProt Q16513)	0.752
IKBKE, construct: Full length (from UniProt Q14164)	0.544
MAP4K5, construct: Full length (from UniProt Q9Y4K4)	0.77
NEK6, construct: Full length (from UniProt Q9HC98)	0.436
SIK3, construct: aa1-307 (from UniProt Q9Y2K2)	0.645
TNIK, construct: aa1-314 (from UniProt Q9UKE5)	0.785
SLK, construct: Full length (from UniProt Q9H2G2)	0.306
CDK10, construct: Full length (from UniProt Q15131)	0.731

Same assay, conditions: V fixed; at -3

Substance	relative phosphorylation
PKN2, construct: aa501-984 (from UniProt Q16513)	0.512
IKBKE, construct: Full length (from UniProt Q14164)	0.672
MAP4K5, construct: Full length (from UniProt Q9Y4K4)	0.591
NEK6, construct: Full length (from UniProt Q9HC98)	0.503
SIK3, construct: aa1-307 (from UniProt Q9Y2K2)	0.427
TNIK, construct: aa1-314 (from UniProt Q9UKE5)	0.594
SLK, construct: Full length (from UniProt Q9H2G2)	0.326
CDK10, construct: Full length (from UniProt Q15131)	0.625

Same assay, conditions: V fixed; at -4

Substance	relative phosphorylation
PKN2, construct: aa501-984 (from UniProt Q16513)	0.985
IKBKE, construct: Full length (from UniProt Q14164)	0.665
MAP4K5, construct: Full length (from UniProt Q9Y4K4)	0.78
NEK6, construct: Full length (from UniProt Q9HC98)	0.549
SIK3, construct: aa1-307 (from UniProt Q9Y2K2)	0.645
TNIK, construct: aa1-314 (from UniProt Q9UKE5)	0.816
SLK, construct: Full length (from UniProt Q9H2G2)	0.688
CDK10, construct: Full length (from UniProt Q15131)	0.628

Same assay, conditions: V fixed; at -5

Substance	relative phosphorylation
PKN2, construct: aa501-984 (from UniProt Q16513)	1.23
IKBKE, construct: Full length (from UniProt Q14164)	0.861
MAP4K5, construct: Full length (from UniProt Q9Y4K4)	0.906
NEK6, construct: Full length (from UniProt Q9HC98)	0.88
SIK3, construct: aa1-307 (from UniProt Q9Y2K2)	0.695
TNIK, construct: aa1-314 (from UniProt Q9UKE5)	0.891
SLK, construct: Full length (from UniProt Q9H2G2)	0.716
CDK10, construct: Full length (from UniProt Q15131)	0.605

Same assay, conditions: W fixed; at +1

Substance	relative phosphorylation
PKN2, construct: aa501-984 (from UniProt Q16513)	0.855
IKBKE, construct: Full length (from UniProt Q14164)	1
MAP4K5, construct: Full length (from UniProt Q9Y4K4)	1.28
NEK6, construct: Full length (from UniProt Q9HC98)	1.5
SIK3, construct: aa1-307 (from UniProt Q9Y2K2)	0.795
TNIK, construct: aa1-314 (from UniProt Q9UKE5)	1.32
SLK, construct: Full length (from UniProt Q9H2G2)	1.49
CDK10, construct: Full length (from UniProt Q15131)	0.241

Same assay, conditions: W fixed; at +2

Substance	relative phosphorylation
PKN2, construct: aa501-984 (from UniProt Q16513)	0.536
IKBKE, construct: Full length (from UniProt Q14164)	0.876
MAP4K5, construct: Full length (from UniProt Q9Y4K4)	0.647
NEK6, construct: Full length (from UniProt Q9HC98)	0.87
SIK3, construct: aa1-307 (from UniProt Q9Y2K2)	1.97
TNIK, construct: aa1-314 (from UniProt Q9UKE5)	0.593
SLK, construct: Full length (from UniProt Q9H2G2)	0.745
CDK10, construct: Full length (from UniProt Q15131)	0.541

Same assay, conditions: W fixed; at +3

Substance	relative phosphorylation
PKN2, construct: aa501-984 (from UniProt Q16513)	0.979
IKBKE, construct: Full length (from UniProt Q14164)	1.33
MAP4K5, construct: Full length (from UniProt Q9Y4K4)	1.08
NEK6, construct: Full length (from UniProt Q9HC98)	1.38
SIK3, construct: aa1-307 (from UniProt Q9Y2K2)	0.851
TNIK, construct: aa1-314 (from UniProt Q9UKE5)	0.789
SLK, construct: Full length (from UniProt Q9H2G2)	0.911
CDK10, construct: Full length (from UniProt Q15131)	0.621

Same assay, conditions: W fixed; at +4

Substance	relative phosphorylation
PKN2, construct: aa501-984 (from UniProt Q16513)	0.987
IKBKE, construct: Full length (from UniProt Q14164)	1.65
MAP4K5, construct: Full length (from UniProt Q9Y4K4)	0.951
NEK6, construct: Full length (from UniProt Q9HC98)	1.36
SIK3, construct: aa1-307 (from UniProt Q9Y2K2)	0.581
TNIK, construct: aa1-314 (from UniProt Q9UKE5)	0.738
SLK, construct: Full length (from UniProt Q9H2G2)	1.04
CDK10, construct: Full length (from UniProt Q15131)	0.967

Same assay, conditions: W fixed; at -1

Substance	relative phosphorylation
PKN2, construct: aa501-984 (from UniProt Q16513)	0.775
IKBKE, construct: Full length (from UniProt Q14164)	0.94
MAP4K5, construct: Full length (from UniProt Q9Y4K4)	0.778
NEK6, construct: Full length (from UniProt Q9HC98)	0.619
SIK3, construct: aa1-307 (from UniProt Q9Y2K2)	0.486
TNIK, construct: aa1-314 (from UniProt Q9UKE5)	0.685
SLK, construct: Full length (from UniProt Q9H2G2)	0.781
CDK10, construct: Full length (from UniProt Q15131)	1.11

Same assay, conditions: W fixed; at -2

Substance	relative phosphorylation
PKN2, construct: aa501-984 (from UniProt Q16513)	0.801
IKBKE, construct: Full length (from UniProt Q14164)	0.934
MAP4K5, construct: Full length (from UniProt Q9Y4K4)	1.3
NEK6, construct: Full length (from UniProt Q9HC98)	0.577
SIK3, construct: aa1-307 (from UniProt Q9Y2K2)	2.92
TNIK, construct: aa1-314 (from UniProt Q9UKE5)	1.17
SLK, construct: Full length (from UniProt Q9H2G2)	0.862
CDK10, construct: Full length (from UniProt Q15131)	0.872

Same assay, conditions: W fixed; at -3

Substance	relative phosphorylation
PKN2, construct: aa501-984 (from UniProt Q16513)	0.661
IKBKE, construct: Full length (from UniProt Q14164)	0.826
MAP4K5, construct: Full length (from UniProt Q9Y4K4)	1.13
NEK6, construct: Full length (from UniProt Q9HC98)	1.25
SIK3, construct: aa1-307 (from UniProt Q9Y2K2)	1.26
TNIK, construct: aa1-314 (from UniProt Q9UKE5)	1.04
SLK, construct: Full length (from UniProt Q9H2G2)	1.95
CDK10, construct: Full length (from UniProt Q15131)	0.997

Same assay, conditions: W fixed; at -4

Substance	relative phosphorylation
PKN2, construct: aa501-984 (from UniProt Q16513)	0.871
IKBKE, construct: Full length (from UniProt Q14164)	0.955
MAP4K5, construct: Full length (from UniProt Q9Y4K4)	1.23
NEK6, construct: Full length (from UniProt Q9HC98)	1.1
SIK3, construct: aa1-307 (from UniProt Q9Y2K2)	1.21
TNIK, construct: aa1-314 (from UniProt Q9UKE5)	0.954
SLK, construct: Full length (from UniProt Q9H2G2)	1.36
CDK10, construct: Full length (from UniProt Q15131)	1.46

Same assay, conditions: W fixed; at -5

Substance	relative phosphorylation
PKN2, construct: aa501-984 (from UniProt Q16513)	0.723
IKBKE, construct: Full length (from UniProt Q14164)	0.922
MAP4K5, construct: Full length (from UniProt Q9Y4K4)	1.07
NEK6, construct: Full length (from UniProt Q9HC98)	1.04
SIK3, construct: aa1-307 (from UniProt Q9Y2K2)	0.973
TNIK, construct: aa1-314 (from UniProt Q9UKE5)	0.771
SLK, construct: Full length (from UniProt Q9H2G2)	1.12
CDK10, construct: Full length (from UniProt Q15131)	1.26

Same assay, conditions: Y fixed; at +1

Substance	relative phosphorylation
PKN2, construct: aa501-984 (from UniProt Q16513)	0.997
IKBKE, construct: Full length (from UniProt Q14164)	1.12
MAP4K5, construct: Full length (from UniProt Q9Y4K4)	0.832
NEK6, construct: Full length (from UniProt Q9HC98)	1.56
SIK3, construct: aa1-307 (from UniProt Q9Y2K2)	0.877
TNIK, construct: aa1-314 (from UniProt Q9UKE5)	1.08
SLK, construct: Full length (from UniProt Q9H2G2)	1.16
CDK10, construct: Full length (from UniProt Q15131)	0.209

Same assay, conditions: Y fixed; at +2

Substance	relative phosphorylation
PKN2, construct: aa501-984 (from UniProt Q16513)	0.885
IKBKE, construct: Full length (from UniProt Q14164)	0.831
MAP4K5, construct: Full length (from UniProt Q9Y4K4)	0.738
NEK6, construct: Full length (from UniProt Q9HC98)	0.989
SIK3, construct: aa1-307 (from UniProt Q9Y2K2)	0.961
TNIK, construct: aa1-314 (from UniProt Q9UKE5)	0.783
SLK, construct: Full length (from UniProt Q9H2G2)	0.599
CDK10, construct: Full length (from UniProt Q15131)	0.843

Same assay, conditions: Y fixed; at +3

Substance	relative phosphorylation
PKN2, construct: aa501-984 (from UniProt Q16513)	1.15
IKBKE, construct: Full length (from UniProt Q14164)	1.74
MAP4K5, construct: Full length (from UniProt Q9Y4K4)	0.94
NEK6, construct: Full length (from UniProt Q9HC98)	0.901
SIK3, construct: aa1-307 (from UniProt Q9Y2K2)	1.1
TNIK, construct: aa1-314 (from UniProt Q9UKE5)	0.745
SLK, construct: Full length (from UniProt Q9H2G2)	0.844
CDK10, construct: Full length (from UniProt Q15131)	0.686

Same assay, conditions: Y fixed; at +4

Substance	relative phosphorylation
PKN2, construct: aa501-984 (from UniProt Q16513)	0.825
IKBKE, construct: Full length (from UniProt Q14164)	1.21
MAP4K5, construct: Full length (from UniProt Q9Y4K4)	0.9
NEK6, construct: Full length (from UniProt Q9HC98)	1.27
SIK3, construct: aa1-307 (from UniProt Q9Y2K2)	0.42
TNIK, construct: aa1-314 (from UniProt Q9UKE5)	0.619
SLK, construct: Full length (from UniProt Q9H2G2)	0.81
CDK10, construct: Full length (from UniProt Q15131)	0.938

Same assay, conditions: Y fixed; at -1

Substance	relative phosphorylation
PKN2, construct: aa501-984 (from UniProt Q16513)	0.811
IKBKE, construct: Full length (from UniProt Q14164)	1.24
MAP4K5, construct: Full length (from UniProt Q9Y4K4)	1.19
NEK6, construct: Full length (from UniProt Q9HC98)	0.744
SIK3, construct: aa1-307 (from UniProt Q9Y2K2)	0.756
TNIK, construct: aa1-314 (from UniProt Q9UKE5)	1.23
SLK, construct: Full length (from UniProt Q9H2G2)	1.41
CDK10, construct: Full length (from UniProt Q15131)	0.77

Same assay, conditions: Y fixed; at -2

Substance	relative phosphorylation
PKN2, construct: aa501-984 (from UniProt Q16513)	0.82
IKBKE, construct: Full length (from UniProt Q14164)	1.76
MAP4K5, construct: Full length (from UniProt Q9Y4K4)	1.43
NEK6, construct: Full length (from UniProt Q9HC98)	0.65
SIK3, construct: aa1-307 (from UniProt Q9Y2K2)	1.62
